From publication PMC10828781, “Genome variation and LTR-RT analyses of an ancient peach landrace reveal mechanism of blood-flesh fruit color formation and fruit maturity date advancement”

Target: PpBL (Prunus persica, UniProt M5WDM1 1-437)
Assay: EMSA; 5x, 10x, 50x competitor probe; EMSA: room temperature 30 min, 6% native PAGE in 0.5x TBE at 4 C, 60 V 1 h, binding buffer not stated; pull-down: 1 ug DNA-bead complex with 300 ul nuclear proteins, 20 min room temperature
Conditions: protein: recombinant; (pGEX-6p-1 vector); label: biotin

Sequence of PpBL (M5WDM1 entry or part of it): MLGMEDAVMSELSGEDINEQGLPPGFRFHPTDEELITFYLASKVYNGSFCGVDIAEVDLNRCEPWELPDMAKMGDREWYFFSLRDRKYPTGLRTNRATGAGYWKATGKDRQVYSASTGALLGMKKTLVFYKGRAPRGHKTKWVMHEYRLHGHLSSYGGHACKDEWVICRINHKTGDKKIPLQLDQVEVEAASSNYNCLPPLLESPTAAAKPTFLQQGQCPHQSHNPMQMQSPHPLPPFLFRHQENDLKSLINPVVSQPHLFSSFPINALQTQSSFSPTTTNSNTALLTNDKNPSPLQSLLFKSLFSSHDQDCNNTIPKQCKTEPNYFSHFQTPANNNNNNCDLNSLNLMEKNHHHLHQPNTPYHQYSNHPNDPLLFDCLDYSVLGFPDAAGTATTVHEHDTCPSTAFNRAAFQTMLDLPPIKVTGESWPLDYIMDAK

| Binder | binding result |
| --- | --- |
| PpACS1 promoter probe (dsDNA) DNA 1: TACAACACGCAAGCAATTAC DNA 2: GTAATTGCTTGCGTGTTGTA | binds |
| PpACO1 promoter probe (dsDNA) DNA 1: ACAGTAATTTGCTTGCTTTC DNA 2: GAAAGCAAGCAAATTACTGT | binds |
